Results published in the DeepSol protein solubility set.

Assay: soluble on expression in E. coli; label from the status in PepcDB or PDB records

Sequence | soluble on expression in E. coli
MAGPLSGLRVVELAGIGPGPHAAMILGDLGADVVRIDRPSSVDGISRDAMLRNRRIVTADLKSDQGLELALKLIAKADVLIEGYRPGVTERLGLGPEECAKVNDRLIYARMTGWGQTGPRSQQAGHDINYISLNGILHAIGRGDERPVPPLNLVGDFGGGSMFLLVGILAALWERQSSGKGQVVDAAMVDGSSVLIQMMWAMRATGMWTDTRGANMLDGGAPYYDTYECADGRYVAVGAIEPQFYAAMLAGLGLDAAELPPQNDRARWPELRALLTEAFASHDRDHWGAVFANSDACVTPVLAFGEVHNEPHIIERNTFYEANGGWQPMPAPRFSRTASSQPRPPAATIDIEAVLTDWDG | soluble
MGSDKIHHHHHHMSEIQLPSQFESFAEARKQGFIAVKNLKEQGKKVAGVFCTYAPVELVLAAGAVPVGLCAFSDETIPEAEKVLPRNLCPLVKSSYGFAITDKCPYMFFSDLMIGETTCDGKKKMYELLGEFKNLHVMQLPQTAAAEASQELWYQEVLRLKDRIEQDFGVTITEEGIKNAIKVKNEERKLLKEFYELSKSCPPPITGAEQLKVLYGSQFKFDPEAKNREIRETIDKVKADQAKGVENVSPAAKRILITGCPLAGVTEKVVRAIEESGGVVVAYENCIGVKPVERLVDETIDPYKALADRYLQIGCSVMTPNPNRLDLLSRLVREFKVDGVVEMTLQACHTYNLETTQIRKHMQKEDMPFISVETDYSTSDAAQLKTRLAAFIEMLS | not soluble
MNDITASSSVILDSLLIDDSLITCEVCFEVFNHENRPPKLLPCGHNFCESCIFSLCLHQEYYLLDSIKCPTCRREFTTNTARQAPTNYDLCKILENLFRRKEQNVTVIEVPELVHNLPPPMAEVSSSATKIVTSQQQQQQQPAVATKMPRHHVSKKMKALAKRTEESKHFRCADCQRKISQKNLFRVSRYCVDCTSTSRMTIVCLECCVNHHNGHDLLTEDSLHHNQLKTLSDLRKLRHRILDSSDEFDRRADEIRTSGMDVCGGLSAEKHNLLTYTLASIDDVMRRIEMAPILFPPVLRTIRDEQSHNFSRLEKLSAQLEKSLVSRKNTKPTSLTFIENMNDTTYQGLQRSVQNQSLNKSTLSIRQSRVSLRTDDSLFHESISSLTRLMHQHPMCLQLEFHHSTVSSKDTVTQRKQKIMSCAHATTSMLDMDLTQVSMVPIFADVLLNCFYQLNRLSKNKFVGDKKYRRCDIWKQVQCSYTELFGITAKHFPSHHPERVDILDDLAYLCHLYSDVADQGTVTICLIEAARARASDSSGLTEIEQQRSEERLELIDEHLTECRRLQKLLELRKTSKTKKNGGLKRLFGGCFIAQEKANDSLVY | not soluble
MLLKPEEYIERLGEYKRDIYVLGKKIEDFVNHPNIRPTVEAMAYTYSIAEKYAPHSELVGEKVNRLNYVNQTFEDLIARYDYQRELSLKLATCNYRCTGCDAINAIYPATKALDEREGTDYHRRFLELLKEIQKKDYACTAALTDVKGDRGKRPSEQKDKYLRVVEKREDGIVVRGAKICQSGAFAADVNFVLPTQTFRPGEEEFAVVFAAMPEDEGIKYILQNTGIQAKQREGGKFEAGNKYGDRTTCMVVFDDVFIPWERVFVFEDLKAARDVVSYFAPSHRCVGAACKAGFIDSMAGAASLMLKTSGLENVSALQQKVAEMVAVSEGAFAISVGAAVKGANHNGCWLPNFQMANSGKVIGVEGFAKALMNLIDISGGIIGTSPSEFDLEMVGDFLRASEKFTAEQRLKIVKFIEFWTTSSHLVGAFHGGGSPTAALITLRFLMDLSSREEAVKNCIDF | not soluble
MKATLFVREFLLNPRTIGAILPSSDYLAEKMMASVCFEQAKYIIEYGPGTGVFTDKILRYRHPDTVVMIIEHNREFFCILNEKYQDEKNVIIINGSAEHIETYVKEHNIPFVDYIISGLPFASLPLHVSNAILNKARYLLGVKGKFITFQYTQTKVRLFTQFFNQMTVERVYRNLPPAFVFSCYNEKLEHHHHHH | soluble
SNAVFGVKEWECEVLSNKNVSTFIKEFVVKLPEGETMNFKSGSYAQIKIPKYNIRYADYDIQDRFRGDWDKMDAWSLTCKNEEETVRAYSMANYPAEGNIITLNVRIATPPFDRAANKWKAGIKPGISSSYIFSLKPGDKVMMSGPYGDFHIQDTDAEMLYIGGGAGMAPLRAQILHLFRTLKTGRKVSYWYGARSKNEIFYEEDFREIEREFPNFKFHIALSDPQPEDNWTGYVGFIHQVIYDNYLKDHDAPEDIEYYMCGPGPMANAVKGMLENLGVPRNMLFFDDFG | soluble
